Reference: patent US20240190989A1 (BEIGENE SWITZERLAND, published 2024)
Where a chain is given by its changes, count along the chain named. Numbers in names are those of the source.

T1: soluble human CEA, amino acids 1-687 of huCEA with C-terminal 6xHis tag (human, UniProt P06731 35-687)
T1 construct: also called sCEA; soluble huCEA
T1 sequence: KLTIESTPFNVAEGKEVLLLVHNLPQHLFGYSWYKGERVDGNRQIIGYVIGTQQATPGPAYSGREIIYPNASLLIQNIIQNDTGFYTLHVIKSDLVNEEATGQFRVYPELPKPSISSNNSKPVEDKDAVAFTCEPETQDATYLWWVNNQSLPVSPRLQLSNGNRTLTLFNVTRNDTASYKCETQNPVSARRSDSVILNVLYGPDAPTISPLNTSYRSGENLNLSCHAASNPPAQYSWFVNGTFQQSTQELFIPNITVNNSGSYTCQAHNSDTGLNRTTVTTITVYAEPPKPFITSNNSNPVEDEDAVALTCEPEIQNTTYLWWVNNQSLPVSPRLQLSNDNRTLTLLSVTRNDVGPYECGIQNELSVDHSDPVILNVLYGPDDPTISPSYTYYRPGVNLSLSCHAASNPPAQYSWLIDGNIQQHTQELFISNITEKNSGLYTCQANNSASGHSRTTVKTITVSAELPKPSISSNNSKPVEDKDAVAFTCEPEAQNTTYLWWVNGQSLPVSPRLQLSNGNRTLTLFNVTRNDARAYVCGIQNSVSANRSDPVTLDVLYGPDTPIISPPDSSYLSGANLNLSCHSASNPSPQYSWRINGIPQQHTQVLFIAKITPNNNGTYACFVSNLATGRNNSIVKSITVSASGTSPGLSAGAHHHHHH

B1: BE-562 (E-muFc-BGA-5623) (bispecific antibody)
heavy: EVQLLESGGGLVQPGGSLRLSCAASGFTVSAEDVGWVRQAPGKGLEWVSAILDKGGSTYYAESVKGRFTISRDNAKNTLYLQMSSLRAEDTAVYYCARIVYHAGGGVTFDTRGQGTQVTVSSEPKSSDKTHTCPPCPAPPAAGPSVFLFPPKPKDTLMISRTPEVTCVVVDVSHEDPEVKFNWYVDGVEVHNAKTKPREEQYNSTYRVVSVLTVLHQDWLNGKEYKCKVSNKALAAPIEKTISKAKGQPREPQVYTLPPSREEMTKNQVSLTCLVKGFYPSDIAVEWESNGQPENNYKTTPPVLDSDGSFFLYSKLTVDKSRWQQGNVFSCSVMHEALHNHYTQKSLSLSPGKGGGGSQVQLVQSGAEVKKPGASVKVSCKASGYIFTSYYLHWVRQAPGQGLEWIGYINPQTGKTSYAQKFQGRVTMTRDTSTSTVYMELSSLRSEDTAVYYCAREYGNYNYPLDYWGQGTLVTVSSASTKGPSVFPLAPSSKSTSGGTAALGCLVKDYFPEPVTVSWNSGALTSGVHTFPAVLQSSGLYSLSSVVTVPSSSLGTQTYICNVNHKPSNTKVDKKVEPKSCD
light: DIQMTQSPSSLSASVGDRVTITCRASENQYGYLAWYQQKPGKVPKLLIYNYKNLVEGVPSRFSGSGSGTDFTLTISSLQPEDVATYYCQHHLGTPYTFGQGTKVEIKRTVAAPSVFIFPPSDEQLKSGTASVVCLLNNFYPREAKVQWKVDNALQSGNSQESVTEQDSKDSTYSLSSTLTLSKADYEKHKVYACEVTHQGLSSPVTKSFNRGEC
B2: BE-375 (E-IgG1-BGA-5623) (bispecific antibody)
heavy: not shown
light: B1 light
B3: BE-244 (A-(G4S)3-BGA-5623) (bispecific antibody, human IgG1, kappa)
heavy: QVQLVQSGAEVKKPGASVKVSCKASGYIFTSYYLHWVRQAPGQGLEWIGYINPQTGKTSYAQKFQGRVTMTRDTSTSTVYMELSSLRSEDTAVYYCAREYGNYNYPLDYWGQGTLVTVSSASTKGPSVFPLAPSSKSTSGGTAALGCLVKDYFPEPVTVSWNSGALTSGVHTFPAVLQSSGLYSLSSVVTVPSSSLGTQTYICNVNHKPSNTKVDKKVEPKSCDKTHTCPPCPAPPAAGPSVFLFPPKPKDTLMISRTPEVTCVVVDVSHEDPEVKFNWYVDGVEVHNAKTKPREEQYNSTYRVVSVLTVLHQDWLNGKEYKCKVSNKALAAPIEKTISKAKGQPREPQVYTLPPSREEMTKNQVSLTCLVKGFYPSDIAVEWESNGQPENNYKTTPPVLDSDGSFFLYSKLTVDKSRWQQGNVFSCSVMHEALHNHYTQKSLSLSPGKGGGGSGGGGSGGGGSEVQLLESGGGLVQPGGSLRLSCAASGFTVSAEDVGWVRQAPGKGLEWVSAILDKGGSTYYAESVKGRFTISRDNAKNTLYLQMSSLRAEDTAVYYCARIVYHAGGGVTFDTRGQGTQVTVSS
light: B1 light
B4: BE-942 (ZW 1+1) (bispecific antibody, human IgG1, L234A L235A)
heavy: QVQLVQSGAEVKKPGASVKVSCKASGYIFTSYYLHWVRQAPGQGLEWIGYINPQTGKTSYAQKFQGRVTMTRDTSTSTVYMELSSLRSEDTAVYYCAREYGNYNYPLDYWGQGTLVTVSSASTKGPSVFPLAPSSKSTSGGTAWLGCEVTDYFPEPVTVSWNSGALTSGVHTFPAVLESSGLYSLSSVVTVPSSSLGTQTYICNVNHKPSNTKVDKKVEPKSCDKTHTCPPCPAPEAAGGPSVFLFPPKPKDTLMISRTPEVTCVVVSVSHEDPEVKFNWYVDGVEVHNAKTKPREEQYNSTYRVVSVLTVLHQDWLNGKEYKCKVSNKALPAPIEKTISKAKGQPREPQVYVLPPSRDELTKNQVSLLCLVKGFYPSDIAVEWESNGQPENNYLTWPPVLDSDGSFFLYSKLTVDKSRWQQGNVFSCSVMHEALHNHYTQKSLSLSPGK
light: B1 light with F116A, Q124R, L135V, T178R
chain: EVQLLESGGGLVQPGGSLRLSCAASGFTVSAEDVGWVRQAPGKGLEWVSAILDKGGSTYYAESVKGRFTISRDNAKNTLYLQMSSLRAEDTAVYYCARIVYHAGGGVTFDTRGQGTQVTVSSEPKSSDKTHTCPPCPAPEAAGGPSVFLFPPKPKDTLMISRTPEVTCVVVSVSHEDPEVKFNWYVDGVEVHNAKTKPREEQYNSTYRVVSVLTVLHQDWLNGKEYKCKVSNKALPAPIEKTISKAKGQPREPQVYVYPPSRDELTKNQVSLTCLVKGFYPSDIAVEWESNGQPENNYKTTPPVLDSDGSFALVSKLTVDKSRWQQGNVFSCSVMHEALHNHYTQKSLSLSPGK
B5: BE-718 (A-BGA-5623-BGA-5623) (bispecific antibody, human IgG1, kappa)
heavy: QVQLVQSGAEVKKPGASVKVSCKASGYIFTSYYLHWVRQAPGQGLEWIGYINPQTGKTSYAQKFQGRVTMTRDTSTSTVYMELSSLRSEDTAVYYCAREYGNYNYPLDYWGQGTLVTVSSASTKGPSVFPLAPSSKSTSGGTAALGCLVKDYFPEPVTVSWNSGALTSGVHTFPAVLQSSGLYSLSSVVTVPSSSLGTQTYICNVNHKPSNTKVDKKVEPKSCDKTHTCPPCPAPPAAGPSVFLFPPKPKDTLMISRTPEVTCVVVDVSHEDPEVKFNWYVDGVEVHNAKTKPREEQYNSTYRVVSVLTVLHQDWLNGKEYKCKVSNKALAAPIEKTISKAKGQPREPQVYTLPPSREEMTKNQVSLTCLVKGFYPSDIAVEWESNGQPENNYKTTPPVLDSDGSFFLYSKLTVDKSRWQQGNVFSCSVMHEALHNHYTQKSLSLSPGKGGGGSEVQLLESGGGLVQPGGSLRLSCAASGFTVSAEDVGWVRQAPGKGLEWVSAILDKGGSTYYAESVKGRFTISRDNAKNTLYLQMSSLRAEDTAVYYCARIVYHAGGGVTFDTRGQGTQVTVSSGGGGSEVQLLESGGGLVQPGGSLRLSCAASGFTVSAEDVGWVRQAPGKGLEWVSAILDKGGSTYYAESVKGRFTISRDNAKNTLYLQMSSLRAEDTAVYYCARIVYHAGGGVTFDTRGQGTQVTVSS
light: B1 light
B6: BE-755 (ZW1+2) (bispecific antibody, human IgG1, L234A L235A)
heavy: B4 heavy
light: B1 light with F116A, Q124R, L135V, T178R
chain: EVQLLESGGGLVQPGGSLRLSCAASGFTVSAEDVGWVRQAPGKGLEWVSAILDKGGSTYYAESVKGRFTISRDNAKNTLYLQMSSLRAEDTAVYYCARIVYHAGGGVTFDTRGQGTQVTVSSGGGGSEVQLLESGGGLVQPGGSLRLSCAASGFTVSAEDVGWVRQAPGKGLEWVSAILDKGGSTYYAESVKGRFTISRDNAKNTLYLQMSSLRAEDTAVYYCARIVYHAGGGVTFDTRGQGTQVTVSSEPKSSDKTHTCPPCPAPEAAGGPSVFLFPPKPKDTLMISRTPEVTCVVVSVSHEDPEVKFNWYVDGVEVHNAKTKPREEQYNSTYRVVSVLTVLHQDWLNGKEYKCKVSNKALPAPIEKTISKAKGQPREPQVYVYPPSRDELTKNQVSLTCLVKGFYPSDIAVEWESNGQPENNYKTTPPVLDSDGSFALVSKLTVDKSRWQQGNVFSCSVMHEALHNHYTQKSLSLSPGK
B7: BE-740 (A-IgG1-BGA-5623) (bispecific antibody)
heavy: not shown
light: B1 light
B8: Format A BGA-7746 (bispecific antibody, human IgG1, kappa)
heavy: QVQLVQSGAEVKKPGASVKVSCKASGYIFTSYYLHWVRQAPGQGLEWIGYINPQTGKTSYAQKFQGRVTMTRDTSTSTVYMELSSLRSEDTAVYYCAREYGNYNYPLDYWGQGTLVTVSSASTKGPSVFPLAPSSKSTSGGTAALGCLVKDYFPEPVTVSWNSGALTSGVHTFPAVLQSSGLYSLSSVVTVPSSSLGTQTYICNVNHKPSNTKVDKKVEPKSCDKTHTCPPCPAPPAAGPSVFLFPPKPKDTLMISRTPEVTCVVVDVSHEDPEVKFNWYVDGVEVHNAKTKPREEQYNSTYRVVSVLTVLHQDWLNGKEYKCKVSNKALAAPIEKTISKAKGQPREPQVYTLPPSREEMTKNQVSLTCLVKGFYPSDIAVEWESNGQPENNYKTTPPVLDSDGSFFLYSKLTVDKSRWQQGNVFSCSVMHEALHNHYTQKSLSLSPGKGGGGSEVQLLESGGGLVQPGGSLRLSCAASGFTVSAEDVGWVRQAPGKGLEWVSAILDFGGSTYYAESVKGRFTISRDNAKNTLYLQMSSLRAEDTAVYYCARVVYHAGGGVTFDTRGQGTQVTVSS
light: B1 light
B9: Format A BGA-5385 (bispecific antibody, human IgG1, kappa)
heavy: B8 heavy with V483L, F508H, V554I
light: B1 light
B10: Format A BGA-9468 (bispecific antibody, human IgG1, kappa)
heavy: B8 heavy with F508S, A557S, T565L
light: B1 light
B11: Format A BGA-7916 (bispecific antibody, human IgG1, kappa)
heavy: B8 heavy with F508S, F563Y, T565Y
light: B1 light
B12: Format A BGA-9442 (bispecific antibody, human IgG1, kappa)
heavy: B8 heavy with V483I, F508S, V553Y, T565L
light: B1 light
B13: Format A BGA-8425 (bispecific antibody, human IgG1, kappa)
heavy: B8 heavy with V483L, F508S, F563Y, T565Y
light: B1 light
B14: BGA190 (antibody, V domains shown)
VH: DVQLVESGGGLVQPGGSRELSCAASGFTFSSFGMHWVRQAPERGLEWVAYISIGSDIIYYADTVKGRFTISRDNPKNTLFLQMTSLRSEDTAVYYCTRRSYRSYWYFDVWGAGTTVTVSS
VL: DIQMTQSPASLSASVGETVTITCRTSENIYSYLAWYQQKQGKSPHLLVYNAKTLAEGVPSRFSGSGSGTQFSLKIISLQPEDFGTYYCQHHFLSPWMFGGGTKLEIK
B15: BGA288 (antibody, V domains shown)
VH: EVLLQQSGPELVKPGASVKIFCKASGYTFTDYNIDWVQQSHGKSLEWIGDIGPNYGGTIYNQKFKGKATLTVAKSSSTAYMELRSLTSEDTAVYYCARRGSIPRAVDYWGQGTSVTVSS
VL: DIKMTQSPSSMYASLGERVTITCKASQDIHNYLSWFQQKPGKSPKTLIYRANRLVDGVPSRFSGSGSGQDYSLTISSLEYEDMGIYYCLQYDEFPYTFGGGTKLEIK

These binders were tested against full-length human CD137 on cells (Hut78/huCD137, HEK293 transfectants, JK-NFKB-CD137) (human, UniProt Q07011 24-255) (assay: cell-based or functional assay).
full-length human CD137 on cells (Hut78/huCD137, HEK293 transfectants, JK-NFKB-CD137), sequence (Q07011 24-255 limits assumed): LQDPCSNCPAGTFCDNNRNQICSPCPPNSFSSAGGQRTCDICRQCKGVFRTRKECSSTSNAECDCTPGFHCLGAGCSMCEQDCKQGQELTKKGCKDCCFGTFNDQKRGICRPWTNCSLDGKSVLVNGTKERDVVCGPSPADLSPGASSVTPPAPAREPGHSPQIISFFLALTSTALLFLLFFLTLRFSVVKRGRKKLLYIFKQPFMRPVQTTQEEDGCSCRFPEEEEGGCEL

Compared with B1, B2 is 2.7-fold lower in “Functional assay EC50 (PBMC cytokine release, in vitro CD137 activation)” value (shortened to “Functional assay EC50”): 4.69 mg/L for the first, 1.76 mg/L for the second.

First: B3
Second: B4
The “Functional assay EC50” value of the first is 140-fold lower: 0.18 mg/L for the first, 25.1 mg/L for the second.

Going from B5 to B6, the “Functional assay EC50” value rises from 0.01 mg/L to 1.16 mg/L (120-fold).

With B7 the “Functional assay EC50” value was 0.17 mg/L.

These binders were tested against T2, human CD137 ECD-mIgG2a (human) (assay: SPR, A-CEAxCD137 format).
T2 construct: ECD 24-183 of huCD137 fused to mouse IgG2a Fc; also called huCD137-mIgG2a; huCD137
T2 sequence (chain, as listed by the source limits assumed): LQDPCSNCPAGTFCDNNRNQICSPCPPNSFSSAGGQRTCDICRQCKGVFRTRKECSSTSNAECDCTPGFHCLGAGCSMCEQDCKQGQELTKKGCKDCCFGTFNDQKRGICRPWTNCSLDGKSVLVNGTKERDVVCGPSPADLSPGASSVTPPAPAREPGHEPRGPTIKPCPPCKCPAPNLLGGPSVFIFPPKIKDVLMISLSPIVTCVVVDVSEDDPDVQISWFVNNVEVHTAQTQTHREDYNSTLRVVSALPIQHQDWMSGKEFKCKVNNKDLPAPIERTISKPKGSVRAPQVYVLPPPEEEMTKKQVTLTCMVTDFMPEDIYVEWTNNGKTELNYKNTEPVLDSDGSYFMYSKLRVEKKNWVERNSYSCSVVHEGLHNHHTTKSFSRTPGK
Procedure: Characterization of anti-huCD137 VH domain antibodies were made by SPR assays using BIAcore™ T-200 (GE Life Sciences). Briefly, anti-human IgG (Fc) antibody was immobilized on an activated CM5 biosensor chip (Cat.: BR100839, GE Life Sciences). Anti-huCD137 domain antibodies were flowed over the chip surface and captured by anti-human IgG (Fc) antibody. […] The equilibrium dissociation constant (KD) was calculated as the ratio koff/kₒₙ.
Affinity comparison on CD137 affinity matured variants was made by SPR assays using BIAcore™ T-200 (GE Life Sciences) and flow cytometry as described.

First: B8
Second: B9
The Kd of the first is 1.6-fold higher: 0.245 µM for the first, 0.154 µM for the second. The second binds more tightly here.

Going from B10 to B11, the Kd falls from 0.873 µM to 0.203 µM (4.3-fold). The second binds more tightly here.

B12 and B13 are within 1.5-fold of each other in Kd: 0.164 µM for the first, 0.189 µM for the second.

These binders were tested against T1, soluble human CEA, amino acids 1-687 of … (assay: flow cytometry on MKN45 cells, 2 µg/ml antibody, competitor 20 µg/ml recombinant soluble CEA in solution).
Procedure: The presence of soluble CEA on the specific binding of various CEA antibodies to CEA expressing cells was evaluated via flow cytometry. […] Cell fluorescence was quantified using a flow cytometer (Guava easyCyte™ 8HT, Merck-Millipore, USA).

B14: binds.
B15: binds.
